Experimental findings from patent US20030124505 are described below.

The target of the data set is RecA recombinase (UniProt P0A7G6). The note with it: second round manual capture from 1:10,000 pHPRT:pUC library; automated 59%; first round 2% and 1.35%.
RecA recombinase, sequence (P0A7G6 2-353): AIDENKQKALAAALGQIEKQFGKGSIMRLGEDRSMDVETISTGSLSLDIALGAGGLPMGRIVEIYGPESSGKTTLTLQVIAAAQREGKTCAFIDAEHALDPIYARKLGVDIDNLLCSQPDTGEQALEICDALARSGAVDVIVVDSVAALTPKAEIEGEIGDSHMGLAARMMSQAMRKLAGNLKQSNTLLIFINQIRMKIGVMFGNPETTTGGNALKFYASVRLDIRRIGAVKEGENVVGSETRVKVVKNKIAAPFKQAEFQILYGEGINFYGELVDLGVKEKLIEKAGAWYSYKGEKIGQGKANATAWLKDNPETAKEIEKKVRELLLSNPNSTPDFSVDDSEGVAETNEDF

With “318 bp biotinylated HPRT cssDNA probe (primers hExo3-2A and h/m300B)”, the activity (% pHPRT clones) was determined as 76.
